Tests used:
YAP = test: Exposure of LSCs to LATS inhibitors, intracellular YAP distribution by immunohistochemistry; assay type: cell-based, human; settings: 10 micromolar, 24 hours, compared with DMSO control; data not shown
Description: Research-consented cadaveric human corneas were obtained from eye banks. Limbal rims were dissected and partially dissociated in a 1.2 mg/ml dispase solution for 2 hours at 37° C. followed by 10 minutes in TrypLE (Life Technologies). Pieces of limbal crypts were then carefully cut out of the partially dissociated limbal rims and rinsed by centrifugation). Cells obtained in this manner were used in the Examples below.
Cells were cultured under these conditions for 24 hours at 37° C. in 5% CO2.
To measure the effect of the LATS inhibitors on the downstream target YAP, intracellular YAP distribution was analyzed by immunohistochemistry. Cell cultures were fixed with 4% PFA for 20 minutes, permeabilized and blocked in a blocking solution of 0.3% Triton X-100 (Sigma-Aldrich) and 3% donkey serum in PBS for 30 minutes. Cells were then labeled with primary antibody in the blocking solution for 12 hours at 4° C. Primary antibody used was anti-YAP from Santa Cruz Biotechnology. Samples were washed in PBS three times and donkey-raised secondary antibody Alexa Fluor 488 (Molecular Probes) at 1:500 dilution were applied for 30 minutes at room temperature. […] Fluorescence was observed using a Zeiss LSM 880 confocal microscope.

phospho-YAP (ser127) = test: Exposure of LSCs to LATS inhibitors, YAP phosphorylation by western blot; assay type: cell-based, human; settings: 10 micromolar, 1 hour, DMSO as negative control
Description: The medium was then replaced by fresh limbal epithelium cell culture medium (DMEM F12 supplemented with 10% human serum and 1.3 mM calcium chloride) supplemented with LATS inhibitor compound example no. […] Cells were cultured under these conditions for 1 hour at 37° C. in 5% CO2.
To measure the effect of the LATS inhibitors on the downstream target YAP, the YAP phosphorylation levels were measured by western blot as follows. The cell pellets were obtained by trypsin dissociation and centrifugation and washed with PBS. The pellets were lysed with 30 microlitres of RIPA lysis buffer containing protease inhibitor cocktail (Life Technologies) for 30 minutes, with vortexing every 10 minutes. The cell debris were then pelleted at 4° C. for 15 minutes at 14 k rpm and the protein lysate was collected. Protein concentration was quantified using a micro BCA kit (Pierce). Fifteen micrograms of total protein was loaded in each well of 4-20% TGX gels (BioRad) and Western blotting was performed according to the manufacturer's instructions. […] Membranes were stained with HRP-conjugated secondary antibodies, rinsed and imaged using a ChemiDoc system (Biorad) according to the manufacturer's instructions.

limbal stem cells = test: Human limbal stem cell population expansion, immunohistochemical observation of p63alpha phenotype; assay type: cell-based; settings: for colony formation and p63alpha expression: 10 micromolar, 6 days after isolation without passaging, DMSO as negative control
Description: Cells were first cultured at 37° C. in 5% CO2 for 6 days after isolation without passaging (FIGS. 2A, 2B and 2C).
To evaluate the ability of the compounds to enable LSC expansion after two passages, LSCs were passaged and cultured for two weeks in the presence of compound example 3 to enable expansion (FIG. 2D). Limbal stem cells (LSCs) were passaged by treating cultures with Accutase for 10 minutes at 37° C., rinsing the cell suspension by centrifugation and plating cells in fresh LSC culture medium supplemented with LATS inhibitor compound example 3.
In order to observe that the expanded cell population expressed p63alpha, this was measured by immunohistochemistry as follows. Cell cultures were fixed with 4% PFA for 20 minutes, permeabilized and blocked in a blocking solution of 0.3% Triton X-100 (Sigma-Aldrich) and 3% donkey serum in PBS for 30 minutes. Cells were then labeled with primary antibody in the blocking solution for 12 hours at 4° C. Primary antibody used was p63alpha from Cell Signalling. Samples were washed in PBS three times and donkey-raised secondary antibody Alexa Fluor 488 (Molecular Probes) at 1:500 dilution were applied for 30 minutes at room temperature. Cells were counter-stained with a human nuclear antigen antibody (Millipore) at a 1:500 dilution in order to label all cells in the culture and confirm their human identity. […] Fluorescence was observed using a Zeiss LSM 880 confocal microscope.

[1] = tested on: genomic DNA purified from male human peripheral blood mononuclear cells; test: Biochemical method for potential off-target genomic sites cleaved by Cas9 and B2M guides; settings: guide concentration of 64 nM
Description: A biochemical method (See, e.g., Cameron et al., Nature Methods. 6, 600-606; 2017) was used to determine potential off-target genomic sites cleaved by Cas9 and selected B2M guides.

[2] = tested on: potential off-target sites; test: Off-target activity detection in limbal stem cells by targeted PCR and NGS; assay type: cell-based, human; settings: edited LSCs vs non-edited PBMCs; positive sites of sequenced loci
Description: Potential CRISPR/Cas9-mediated cutting sites identified above were evaluated using targeted PCR and NGS in genome-edited expanded LSCs.
Selected sgRNAs (SEQ ID NO: 120, 162, 166, 167, 171, and 175) were further analyzed by amplicon sequencing in edited and non-edited cells. Primers flanking the potential off-target sites for each guide were used to detect indels by NGS analysis in edited LSCs and non-edited peripheral blood mononuclear cells. Sites that had either (1) a difference in mean indel percentage between edited and unedited cells greater than 0.5%; or (2) a p value less than 0.05 between edited and unedited indel were further analyzed. NGS sequence reads for such sites were assessed for characteristic indel patterns near the putative Cas9 cut site.

Row | Molecule | off-target Site_Count [1] | Number of sites positive for off-target activity in LSCs [2] | further results
1 | CC(C)(O)CC(C)(C)Nc1nc(-c2ccncc2)nc2cnccc12 [Example 3, 2,4-dimethyl-4-{[2-(pyridin-4-yl)pyrido[3,4-d]pyrimidin-4-yl]amino}pentan-2-ol] | – | – | YAP immunostaining in the nucleus of LSCs (YAP): stronger; YAP phosphorylation levels in human LSCs (Western blot) (phospho-YAP (ser127)): caused a reduction in YAP phosphorylation levels; YAP phosphorylation levels in human LSCs (Western blot) (phospho-YAP (ser127); listed as ex. 3): induce YAP dephosphorylation; colony formation and p63alpha expression (limbal stem cells): the cells formed colonies and expressed p63alpha; cell population expansion after passaging, p63alpha expression (limbal stem cells; passaged and cultured for two weeks in the presence of compound): enabled cell population expansion and the formation of confluent cultures expressing p63alpha
2 | Cc1n[nH]cc1-c1nc(NC2(C)CC2)c2ccncc2n1 [Example 4, 2-(3-methyl-1H-pyrazol-4-yl)-N-(1-methylcyclopropyl)pyrido[3,4-d]pyrimidin-4-amine] | – | – | YAP immunostaining in the nucleus of LSCs (YAP): stronger; YAP phosphorylation levels in human LSCs (Western blot) (phospho-YAP (ser127); listed as ex. 4): induce YAP dephosphorylation; YAP phosphorylation levels in human LSCs (Western blot) (phospho-YAP (ser127); listed as example no. 4): caused a reduction in YAP phosphorylation levels; colony formation and p63alpha expression (limbal stem cells): the cells formed colonies and expressed p63alpha
3 | 4-CR004366: gRNA targeting B2M (Dharmacon); targeting domain CAGUAAGUCAACUUCAAUGU (SEQ ID NO: 111); sgRNA SEQ ID NO: 162 (nucleic acid, listed as RNA, chemistry not given here) guide: CAGUAAGUCAACUUCAAUGUGUUUUAGAGCUAGAAAUAGCAAGUUAAAAUAAGGCUAGUCCGUUAUCAACUUGAAAAAGUGGCACCGAGUCGGUGCUUUU | 92 | zero | –
4 | 9-HEYJA000005: gRNA targeting B2M; targeting domain UCACGUCAUCCAGCAGAGAA (SEQ ID NO: 116); sgRNA SEQ ID NO: 167 (nucleic acid, listed as RNA, chemistry not given here) guide: UCACGUCAUCCAGCAGAGAAGUUUUAGAGCUAGAAAUAGCAAGUUAAAAUAAGGCUAGUCCGUUAUCAACUUGAAAAAGUGGCACCGAGUCGGUGCUUUU | 35 | zero | –
5 | CR000456: gRNA targeting B2M; targeting domain CUUACCCCACUUAACUAUCU (SEQ ID NO: 139); sgRNA SEQ ID NO: 176 (nucleic acid, listed as RNA, chemistry not given here) guide: CUUACCCCACUUAACUAUCUGUUUUAGAGCUAGAAAUAGCAAGUUAAAAUAAGGCUAGUCCGUUAUCAACUUGAAAAAGUGGCACCGAGUCGGUGCUUUU | 66 | – | –
6 | 6-HEYJA000001: gRNA targeting B2M; targeting domain GGCCGAGAUGUCUCGCUCCG (SEQ ID NO: 113); sgRNA SEQ ID NO: 164 (nucleic acid, listed as RNA, chemistry not given here) guide: GGCCGAGAUGUCUCGCUCCGGUUUUAGAGCUAGAAAUAGCAAGUUAAAAUAAGGCUAGUCCGUUAUCAACUUGAAAAAGUGGCACCGAGUCGGUGCUUUU | 8 | – | –
7 | CR000442: gRNA targeting B2M; targeting domain GGCCACGGAGCGAGACAUCU (SEQ ID NO: 134); sgRNA SEQ ID NO: 171 (nucleic acid, listed as RNA, chemistry not given here) guide: GGCCACGGAGCGAGACAUCUGUUUUAGAGCUAGAAAUAGCAAGUUAAAAUAAGGCUAGUCCGUUAUCAACUUGAAAAAGUGGCACCGAGUCGGUGCUUUU | 29 | zero | –
8 | 8-HEYJA000004: gRNA targeting B2M; targeting domain ACUCACGCUGGAUAGCCUCC (SEQ ID NO: 115 in Table 10, 118 in Table 4); sgRNA SEQ ID NO: 166 (nucleic acid, listed as RNA, chemistry not given here) guide: ACUCACGCUGGAUAGCCUCCGUUUUAGAGCUAGAAAUAGCAAGUUAAAAUAAGGCUAGUCCGUUAUCAACUUGAAAAAGUGGCACCGAGUCGGUGCUUUU | 62 | zero | –
9 | CR000443: gRNA targeting B2M; targeting domain CGCGAGCACAGCUAAGGCCA (SEQ ID NO: 135); sgRNA SEQ ID NO: 172 (nucleic acid, listed as RNA, chemistry not given here) guide: CGCGAGCACAGCUAAGGCCAGUUUUAGAGCUAGAAAUAGCAAGUUAAAAUAAGGCUAGUCCGUUAUCAACUUGAAAAAGUGGCACCGAGUCGGUGCUUUU | 117 | – | –
10 | CR000455: gRNA targeting B2M; targeting domain UUACCCCACUUAACUAUCUU (SEQ ID NO: 138); sgRNA SEQ ID NO: 175 (nucleic acid, listed as RNA, chemistry not given here) guide: UUACCCCACUUAACUAUCUUGUUUUAGAGCUAGAAAUAGCAAGUUAAAAUAAGGCUAGUCCGUUAUCAACUUGAAAAAGUGGCACCGAGUCGGUGCUUUU | 48 | zero | –
11 | CR000446: gRNA targeting B2M; targeting domain AGGGUAGGAGAGACUCACGC (SEQ ID NO: 136); sgRNA SEQ ID NO: 173 (nucleic acid, listed as RNA, chemistry not given here) guide: AGGGUAGGAGAGACUCACGCGUUUUAGAGCUAGAAAUAGCAAGUUAAAAUAAGGCUAGUCCGUUAUCAACUUGAAAAAGUGGCACCGAGUCGGUGCUUUU | 98 | – | –
12 | CR000453: gRNA targeting B2M; targeting domain CACAGCCCAAGAUAGUUAAG (SEQ ID NO: 137); sgRNA SEQ ID NO: 174 (nucleic acid, listed as RNA, chemistry not given here) guide: CACAGCCCAAGAUAGUUAAGGUUUUAGAGCUAGAAAUAGCAAGUUAAAAUAAGGCUAGUCCGUUAUCAACUUGAAAAAGUGGCACCGAGUCGGUGCUUUU | 82 | – | –

Reference: patent publication US20200131474A1, “METHODS AND COMPOSITIONS FOR OCULAR CELL THERAPY” (Novartis AG, priority 2018, published 2020)
